Data: US20160376555A1, “NOVEL METHODS TO REGENERATE HUMAN LIMBAL STEM CELLS” (The Regents of the University of California, priority 2012, published 2016)

Tests used:
Wnt3a activities [1] = conditions: functional recombinant Dkk2 protein; Wnt reporter gene assay; read-out: IC50, inhibition of Wnt3a activities; cited from earlier work
Wnt3a activities [2] = assay: Wnt reporter gene assay; format: cell-based; conditions: Dkk2 at 125 nM
Text: As discussed above, Wnt/β-catenin and Notch pathways play pivotal roles in the fate determination decision between epidermal and corneal epithelial lineage in mice. In particular, Dkk2 is necessary for corneal development and activation of Notch1 is required to maintain the corneal lineage. Dkk2 alone or in combination with Notch1 activation may facilitate and increase the efficiency of the reprogramming process in humans. Functional recombinant Dkk2 protein can be provided by Dr. Jie Zheng (St. Jude Children's Research Hospital) (see, e.g. Lin et al., Proc Natl Acad Sci USA 2010; 107:4194-4199). It inhibits Wnt3a activities with an IC50 value around 8 nM in the Wnt reporter gene assay(see, e.g. Lujan et al., Proc Natl Acad Sci USA 2012; 109:2527-2532). Therefore, we can use the 3-step coculture protocol as described above and add Dkk2 to the culture medium at various concentrations starting at 8 nM to the Step 1 co-culture, which is the reprogramming step. Phenotypic analysis can be performed in each of the 3 steps to determine the outcome of transdifferentiation by the expression of K12 and K10 in the cultured epithelial cells. The optimal concentration of Dkk2 that achieves the highest portion of K12+ cells in Step 3 can be determined. This concentration of Dkk2 can be used. […]

B1: Dkk2: Functional recombinant Dkk2 protein, a Wnt inhibitor (protein, UniProt Q9UBU2 34-259, looked up)
Dickkopf-related protein 2: KLNSIKSSLGGETPGQAANRSAGMYQGLAFGGSKKGKNLGQAYPCSSDKECEVGRYCHSPHQGSSACMVCRRKKKRCHRDGMCCPSTRCNNGICIPVTESILTPHIPALDGTRHRDRNHGHYSNHDLGWQNLGRPHTKMSHIKGHEGDPCLRSSDCIEGFCCARHFWTKICKPVLHQGEVCTKQRKKGSHGLEIFQRCDCAKGLSCKVWKDATYSSKARLHVCQKI
For B1, the IC50 (Wnt3a activities [1]) is listed as about 8 nM and the inhibition (Wnt3a activities [2]) is listed as 90%.
